Consider 69 sequences from the domain aggregation screens of Martell et al. (2025).
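Note: 20 min heating vs room temperature control held 20 min.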

The nature of this data set: soluble fraction after stress (log2 fold change); higher = more stays soluble; pooled small domains, quantitative proteomics. Conditions: stress: 75 degC.
Regarding “HMLAKRYLVYGSGSLNSAYPDTKNIAYGIDSGKGFFLVGILTENEASKLKLKGYYVIEDFPLDFH”, the “soluble fraction (log2)” value is -1.45.

“HMLAPLAEMRGDTLDRLEKAVLELFSSRDFHEVSLQDVARRANVSLQTIYKYFGSKEALVYTMLDTLLGR”: the “soluble fraction (log2)” value is -0.416. The same measure for “HMLAQVSDEGPIRAMVEAVMARSTQQLEDYKNGKVKLRQYFFGEVMKAAKGKANPTVINKLLDEMLPETL”: -0.314; for “HMLAQYPGQVFSKEQIYNQVWKEPYYGVEDNVMSLIRRIRKKIEPDPSRPIYILTVWGIGYKFNN”: 0.0812; for “HMLARFSGIALNTWTQADVERTFGPPMLVERVARFDGDIWTYRFMDDYEPRMAHIHIDRAGTVRQLVF”: -2.86. The same measure for “HMLAVEKIEFVGNERIAAADLESALSALYDRPMTTISDDEIAKLLSGFSLIETFTSQAEPPHTLRVNIRE”: 0.083; for “HMLDEKFLSELMLALLRNHRRGLRAEVLLHKVRSNMELDGYKSLLVGVGRMEMWELAREIIDFVKAEG”: -4.4. The same measure for “HMLDGFEVGMTVMRKPGTETGFTGWPPFADKDEFPVIERIDTSDSTLLLRFNDTSWWINASLVEPSDV”: -2.19. “HMLDIPEVGQAVQVRGRLGTVFSVAPYDGREGRLHLVTVDYLDDARPPENDEILWEIESGARILG”: the “soluble fraction (log2)” value is -0.698. On to “HMLDLNEVEFYAIENQLKENLKIDSKRFYELVPLIKGYQEDDIIQVLRWLIDNNRIIRHKDESLTWHS”, for which the “soluble fraction (log2)” value was -1.68. The same measure for “HMLDLSEEEQKIVSILEKQGNLQINSLVVEADIPVHKINAILFELEMKGVVRVLALSLIHISEP”: 0.149; for “HMLDPVLQREKDESFTDYHIRLFKNKDTYHIDTKTIATLLNKDQGTNYDESKWRKDFKQYERWNDYIMSKN”: 0.116. Turning to “HMLDPYNVLGVPRDAGMDEIKKAYRKLSRTYHPDANIDNPNKAQAEEKFKQIQEAYQQIVKERTE”, the “soluble fraction (log2)” value was -0.0272. With “HMLDQAVPVFETPKYAVSYIQNRLVEMKAASPEEAASRFYESISESERRGLFEALLIKEAEES”, the “soluble fraction (log2)” value stood at 0.0105.

Consider “HMLDQGTQSRYQIMDGVRALITGDWSSHGAGLVRELSQEVARTSGLTATSERTFFVPFSALS”, for which the “soluble fraction (log2)” value is 0.00593. On to “HMLDSDARRRGLIEYLSLNGYATMRQLAGEFDVSINTIQRDITYLARYYPLETAYGRYGGGVYFEQNWQ”, for which the “soluble fraction (log2)” value is -1.44.

For “HMLDSGNPILPYKLSLLANVDIRTVRNAISAGELVAFKSEFDGEVYVENGSARRWLHGRRGFKPTLK”, the “soluble fraction (log2)” value is -2.56. With “HMLDSNILTLIKELKIRHHFTATQTHQLEKVIQQAHALGLDNSEIRSLANSSPSAKSLINDLNQKLEPLRL”, the “soluble fraction (log2)” value was -1.44. Next, “HMLDTELEANLRSQRDQKLVEELDPIVTNPLRWAELTSDKQTEWTQYRTDLLNVPQQSGFPTNVTWPEKP”: 0.216; “HMLDVFSAEQVADVLSVSKRNLETWANNGKLIPDFIHGEVALYSKKQLEQFEQFQRFFNSSWDAERLIQP”: -1.54. Next, “HMLDVGDQLVKKLKDNDSLDFHFVNSKEANKGLKDGDYYMVITIPSNFSKNATTLLDKNPKKMVLNYTTNP”: -0.0273; “HMLEAKQIQDNWESLIKLIEDNFTGERKENLLKMYTHFQDRMMFAPASSKEHFHNAFPGGYVEHVL”: -0.369. Next, “HMLEDIDNSIKKEIILEHYDKMLEFHGDYGAIIFRKLLHAYSKGYTGANEFRDLVNQISDKNIMRDLIESF”: -0.947; “HMLEEIIDVKRFLVENVRGVSEKTALAILSEFGDKTMDVLRNSPNELYRIKGMSGKRIEVIKDAIANATAS”: -0.568.

With “HMLEINTIIGNNLKKIRQEKKLTLDELAGITGVSKGMLSQIEKGTTNPTINTIWKISNGLNVPYTYLLEDD”, the “soluble fraction (log2)” value was -0.513.

For the sequence “HMLENIVFTNKFKNKRLDVLLVDMKLVSSRQKAVSLIMRGNVFVEEERADKPGKIIKLNQTISLKK”, the “soluble fraction (log2)” value is -2.78.

Turning to “HMLERPLKLKSHYVSAINEKVAVQFQAGEERKSIMGTLTEVNQDTIVIDDRGSVTEIPFKSIIRAKTVF”, the “soluble fraction (log2)” value is -0.621. The same measure for “HMLESPVEAIIRQIKQLITNGKLKPGDRLPAERLLAENFGVGRGYVREAIMKLEFFGLLKTSPQSGTYVAG”: -1.39; for “HMLETIDIFKVTGGEPFLSKDFLEILDLAIEKDLAKNITLMITTNASKFVKKILDKFIHFKRVEFTVS”: 0.407. Turning to “HMLFGKKYLGKVPNDASGRISLWNDIVKHHQELQNIRAIENFTSDNVTVAQGDTKKAVVVTDYVT”, the “soluble fraction (log2)” value was -0.286. The same measure for “HMLFQGDTPAENIILEILSKNGTTASDSIIKQSGLSVSDFNQAATMLEIKGLISNNGGNIWSL”: -0.0591; for “HMLFVKLSDAQRSMFGAKLARDARIQSEYAQKLPSENYEVFGKALADMLLDETHFKTFYPLLVEYGYTQPK”: -1.32. On to “HMLGDIYISIPRAKLQAEEYGHSFKRELAFLAVHGFYHLLGYDHQTKEEEEVMFGKQEEVLAEFDIKR”, for which the “soluble fraction (log2)” value was -0.0616. Next, “HMLGKNEAKEYKVAYGDIGKMPALIMGLVPLPKPPVVDERLRTLYVTATPEQHREIEAIMNRI”: 0.236; “HMLGKSNAERQLDLILGAIERSITGVSRSKLMQAYHLDSRGATAAFETLEQRGLITRSKSGRTELLIPTRV”: -1.78.

Turning to “HMLGWEDVIQFEEVKGYGQHIWRDGNHLYYVTEEGGIAPQRVVYELPNELFALLESGERTQLEILSKLQ”, the “soluble fraction (log2)” value is -2.51. For the sequence “HMLHNEFINDRIQSAINNLSEHFKIVIILRDIQELSYEEISNIVEVPLGTIKSRINRARIQLQAELLDL”, the “soluble fraction (log2)” value was 0.215.

In the case of “HMLILDTDGRYVIKRGDSLSEILEKIANGSNINLNLLKRAFVTANPKAFKRANPNWMYANAR”, the “soluble fraction (log2)” value was -0.249. The same measure for “HMLIPTISVTKEGQLRFENIPVSWEELGTRLRDVSDLDKIKIYADAESDALTISEIMKTAANVGIVQFVLV”: -1.03.

For “HMLIRKGVVSFFNDAKGYGFIKDLVTQESAFVHVNSLSETIKEHDKVTFEVEMGHKGANAVNVKLVK”, the “soluble fraction (log2)” value was -1.09. The same measure for “HMLIVLKPNVSQEEIDHIVDKIRSLSLEPHVSTGVQRTIITVIGDEDVIREQPLEALAGVESVKSILKP”: -0.358. Next, “HMLKGTVKWFNESKGFGFIEQEEGKDVFVHYSAITGSGFKTLNEGDKVQFEIVDGPKGPAAANVSK”: 0.036; “HMLKKGDQVYIISGKDKGKLGVVSQIVSEERILVDGINLAKKHVKPNPNKNETGGVVEKEMPIHASNVMI”: 0.243. For “HMLKLTDRQKVILSILMSDGEKTASWIASQLGVGLRSVQLDLSYLRNNGFIKKASKSTHSAWIVLKK”, the “soluble fraction (log2)” value is -4.1. Next, “HMLKPIHKDWSPNGDAKEILLKAGITEEFIQKELPEFIMYWSERNEESDIWNSKFIAHIRRRWGRFS”: -1.64; “HMLKPVVLLGARGLTDAVEKEVERALDEHGLIKIHVPSDDREERDEIYTTLADKLNAARIQAIGKMLVLW”: -0.0344.

For “HMLKSGSAVAQARDVILEKGVPVHINEILDALGKGDTREAKASLTSSLAAYVRRGEIFTRPAPNTFGLVEL”, the “soluble fraction (log2)” value was -0.592.

For the sequence “HMLKTADAIASVLLTRIQAGEFSAGRLPAERALSEAFSTTRITLREALGKLEAQGMIYRELRRGWFIA”, the “soluble fraction (log2)” value was -1.85. For “HMLLFNPGEVLKGFVLQSGTNNRVLLQIGDSRVIADTQTPLKAGEQLVLRVEETGPKTILQILG”, the “soluble fraction (log2)” value is 0.177.

On to “HMLLGDYIQKLRNQRGLSQQEFADKLGIGRSTLANYEQNKRSPDYETLIEISKFFNVSIDELLGV”, for which the “soluble fraction (log2)” value was -1.05.

With “HMLLLASTPAEQTIIQLLAEGWRDGDQLQQRSHLSAADFSTALTMLEVNGSIKPLGANHWALTH”, the “soluble fraction (log2)” value was -1.26. Next, “HMLLPANLTKSQRNIAERVARGQSNLEIAADLNITERTVKAHLTSIYEKTKTGNRLNLALLINLG”: -0.289; “HMLLPGEELRVMIIQEGKEYGQGVGYLDDGTMVVVEDGQRALNRTENVVVTKVLQTTAGRMIFAK”: -0.71; “HMLLQENRKLHSKLEELQLISRAKAVLIEYLKLTEPQAHRYIEKQAMDLGLTRPQVALNILKTYE”: -1.38.

“HMLLQTAVISTDIVNMRAEPTTNSSVIRKLTKGSDITINQEKDGWYKISDDQGNSGWIVTWAAKPT”: the “soluble fraction (log2)” value was -0.208. The same measure for “HMLMDVRVPDIIGVEINQAKEILTASSLLIGKITYVSLPEIEKDLVIETSVLAGRRVSAGTVIDITVNKE”: -2.09. Next, “HMLMKPQKTRDVLRYLKSIGWVRLRGGQGSHEIWGLPDGSIRAVIPAGHREISAGVLMQLKRAGVDVPTQW”: -1.25; “HMLMLTPGQIAQTLDVSTATVRRWSARYARHLSPNTPGKKRSYTVDDLAVLTRVRDLSATGTPLAQIDQAL”: -2.11. For the sequence “HMLMLTPGQVSNSLNVSTATVRRWSARFARHLSPQPPNRKRSYTPDDLATLARVRDLSASGTSLAQIDIAL”, the “soluble fraction (log2)” value is -2.59. Take “HMLMRSPDFLIGWFQNLVAKRETFNDQVQAKNLIEAGKQHIQGEDFDRLLEVNRRLFSLLPQREQE”: the “soluble fraction (log2)” value is 0.177. The same measure for “HMLNAPFGFRIEDDTLIPIPEEAKVVRQIFRYYLQGMGFGKIAQELNGQDVPGKPWGKERIKYILSNEKYI”: -2.47; for “HMLNERQKKIIKILKDNKNWMTGKELSEFLNVSDRTIRSDIEYINRYNNALIESNVKNGYHLNFE”: -0.233. The same measure for “HMLNIVTIFEEQFGRPLSPIELNIIKDWKESDYSDEMIVKALKEAVKSQVLNFRYVEGILNNWAKNG”: -0.783; for “HMLNLNEAEKSIYVLIKKNESNNLNKVKEDSNLSNKAWDKGIKNLVKNNLVKVVKSNEGLFIQLV”: -0.636; for “HMLNLNILTDKEKFIAKLISRGLSDSLIAKELYISISTVRSHVNSIYGKTNIKNRSHLASSFLYFELGNLL”: -0.204. As for “HMLNPMILLTKGGENIRLDKFLSSHLSDLSRTQIQKMVKEGLVLVNGEPSKVGLKLDGSETIQYTLPK”, the “soluble fraction (log2)” value was -0.18. For “HMLNSISIKTNKKIDFLEKNEHLVNFVYEKETMEHIYNLSYENKKDLQELQNKLSDIEGIIKINTDL”, the “soluble fraction (log2)” value came out at 0.651. Next, “HMLPDVSITGHIFIRSGSRLNRIFVGESTYHVGDMLDGKWLIESINSDSLELRSGTQTTELPL”: -2.83. Next, “HMLPDYLIELKKKADSGDAVSQNDIGNIYLYGLPRVNIYPDEKNIGIGIDYLYKAAWQDQVNAMTTI”: -0.098.
